# ± gives the standard deviation of the averaged measurements.
# System: ATP
# Assay: switch fluorescence ratio, 500 uM ATP over buffer (Cy3 cluster intensity, sum of 5 cycles each) (fold (ratio)); higher = stronger signal-on switching upon ATP binding; sequences stand for … in TCGTCGGCAGCGTCAGATGTGTATAAGAGACAGTTTTTTTTTTTTTTTTTTTTTTTTT…TC
# Conditions: aptamer strand: ATP DNA aptamer (quencher-CACCTGGGGGAGTATTGCGGAGGAAGG + anchor), 100 nM annealed; ATP concentration: 500 uM
# Procedure, shortened: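 Cy3-labelled switching-strand clusters on a modified Illumina MiSeq flow-cell were annealed to 100 nM quencher-labelled ATP aptamer and imaged first in selection buffer, then after 15 min with 500 uM ATP at 22 °C. NaOH stripping and re-annealing separated each of five buffer/ATP cycles, and clusters outside 100-1000 RFU were excluded. The fluorescence ratio sums target-cycle Cy3 intensity over buffer-cycle Cy3 intensity per cluster and averages it per switch-domain sequence.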
# 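Also: ATP exposure 15 min at 22 °C before imaging.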
row,Sequence,switch fluorescence ratio
1,GCTGGTGTTG,1 ± 0.013
2,GCTGGTTAAA,0.97834 ± 0.00053
3,GCTGTAAAGA,0.983 ± 0.029
4,GCTGTAAGGG,0.988 ± 0.028
5,GCTGTAGGCC,1.02 ± 0.014
6,GCTGTAGGTG,1.039 ± 0.0033
7,GCTGTAGGTT,1 ± 0.011
8,GCTGTATGAG,0.985 ± 0.029
9,GCTGTATGGC,1.01 ± 0.027
10,GCTGTCATGA,0.9853 ± 0.0074
11,GCTGTGGTT,0.9376 ± 0.00097
12,GCTGTTACGG,0.983 ± 0.016
13,GCTGTTGTCG,0.974 ± 0.052
14,GCTTAAGGGC,0.956 ± 0.033
15,GCTTACAGGA,1.01 ± 0.033
16,GCTTAGGATT,1.01 ± 0.033
17,GCTTATTAGT,1 ± 0.0042
18,GCTTCAGGGT,0.989 ± 0.025
19,GCTTCCGGGG,1.27 ± 0.06
20,GCTTCGAGGG,0.968 ± 0.013
21,GCTTCGGGGG,1.06 ± 0.043
22,GCTTCGTTGG,1.17 ± 0.18
23,GCTTCTGAGG,1.07 ± 0.018
24,GCTTCTGGAA,1.06 ± 0.018
25,GCTTCTGGTT,0.988 ± 0.023

row,Sequence,switch fluorescence ratio
1,GCTTGCACTA,0.998 ± 0.015
2,GCTTGCCGGT,1 ± 0.037
3,GCTTGCGATG,1.01 ± 0.011
4,GCTTGCTATT,0.965 ± 0.021
5,GCTTGCTTTT,0.989 ± 0.022
6,GCTTGGACGG,1.02 ± 0.055
7,GCTTGGATAA,1.02 ± 0.032
8,GCTTGGGATT,0.977 ± 0.029
9,GCTTGGTGCT,1.05 ± 0.031
10,GCTTGTGACG,1.02 ± 0.058
11,GCTTGTTTGT,1.02 ± 0.024
12,GCTTTAAGTA,0.992 ± 0.044
13,GCTTTAGAGG,1.004 ± 0.0053
14,GCTTTATTGC,1.01 ± 0.014
15,GCTTTCATTT,1.013 ± 0.0049
16,GCTTTCCCTT,1.022 ± 0.01
17,GCTTTCGATG,1.02 ± 0.02
18,GCTTTCTCGG,1.08 ± 0.048
19,GCTTTGATTT,1.02 ± 0.022
20,GCTTTGGAAG,0.985 ± 0.034
21,GCTTTGGGAC,1.25 ± 0.28
22,GCTTTGTACG,1.042 ± 0.0014
23,GCTTTTAAGT,0.99809 ± 0.00068
24,GCTTTTAGCC,0.991 ± 0.043
25,GCTTTTCGTA,0.9995 ± 0.0064

row,Sequence,switch fluorescence ratio
1,GCTTTTGTTT,1.04 ± 0.013
2,GCTTTTTCTT,1.018 ± 0.004
3,GCTTTTTTTT,1.01 ± 0.019
4,GGAAAAAGGC,0.9838 ± 0.0058
5,GGAAAAAGTG,0.991 ± 0.014
6,GGAAAAGAGA,1.01 ± 0.017
7,GGAAACAGGG,0.964 ± 0.02
8,GGAAACGATT,1.01 ± 0.035
9,GGAAACTAGG,1.016 ± 0.003
10,GGAAAGGGAT,0.991 ± 0.012
11,GGAAAGTTGG,0.996 ± 0.012
12,GGAAATAAAA,1.22 ± 0.24
13,GGAAATGAGT,1.02 ± 0.016
14,GGAAATGGGT,1.05 ± 0.036
15,GGAAATGTCG,0.918 ± 0.078
16,GGAAATTCAT,1.36 ± 0.54
17,GGAACAGGGT,0.934 ± 0.072
18,GGAACGGGGA,1.01 ± 0.017
19,GGAACGGGTC,1.02 ± 0.024
20,GGAACTGCTG,1.04 ± 0.029
21,GGAACTTTTA,1.01 ± 0.023
22,GGAAGAATGG,0.985 ± 0.024
23,GGAAGATGGG,0.99 ± 0.021
24,GGAAGGGTTG,1 ± 0.034
25,GGAAGGTGGG,1.15 ± 0.25

row,Sequence,switch fluorescence ratio
1,GGAAGGTTTT,0.97669 ± 0.00029
2,GGAAGTAGAT,1.01 ± 0.028
3,GGAAGTGGCA,1.01 ± 0.041
4,GGAATAATGT,1.03 ± 0.061
5,GGAATAGATT,0.99048 ± 0.00037
6,GGAATAGGCT,0.967 ± 0.059
7,GGAATCCGGC,1.06 ± 0.02
8,GGAATGTGAA,0.978 ± 0.019
9,GGAATGTGGG,0.984 ± 0.042
10,GGAATGTTGC,0.9733 ± 0.0039
11,GGAATTATTG,1.08 ± 0.15
12,GGAATTTCGG,1.17 ± 0.23
13,GGAATTTGGA,0.983 ± 0.057
14,GGAATTTGGG,0.99 ± 0.021
15,GGACAATGAG,0.998 ± 0.035
16,GGACACTCTG,0.977 ± 0.013
17,GGACAGGTTT,0.9784 ± 0.0034
18,GGACAGTTGT,1.01 ± 0.057
19,GGACCAGGGA,1 ± 0.046
20,GGACCGGCTA,0.998 ± 0.02
21,GGACGACCGG,1.02 ± 0.027
22,GGACGGCTGC,1.02 ± 0.029
23,GGACGGGGAC,1.12 ± 0.015
24,GGACGGGTGC,1.1 ± 0.088
25,GGACTACCTG,1.01 ± 0.022

# — the supplement of paper PMC10126150
